In patent publication US20160024208A1 (Regeneron, published 2016):
Where a chain is given by its changes, count along the chain named.

Assays:
[1] = target: T1, full-length human Nav1.7 fused at its N-terminus to GFP, expressed in HEK293 cells (human, UniProt Q15858 1-1988); test: cell-based or functional assay
[2] = target: T2, Native Nav1.7 (3-1) peptide, human (human); test: SPR, captured antibody, peptide analyte
T2 construct: Synthetic peptide (Celtek), unbiotinylated; also called Human Nav1.7 3-1 native; Nav1.7 3-1 native peptide
T2 peptide: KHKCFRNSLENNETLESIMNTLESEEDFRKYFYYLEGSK
Protocol: (§1) The binding affinities of anti-Naᵥ 1.7 antibodies to Naᵥ 1.7 loop peptides were determined by Biacore. For monovalent kinetic experiments, antibodies were captured through the Fc region via a goat anti-Fc-coupled biosensor surface, and the peptides (as analyte) were injected over this captured antibody surface. For bivalent (avidity-driven) kinetic experiments, biotinylated peptides corresponding to the Naᵥ 1.7 3-1, 3-3, or paddle loop sequences were captured on a NeutrAvidin sensor surface, and anti-Naᵥ 1.7 antibodies (as analyte) were injected over this surface. Following the capture step, each analyte was individually injected at several concentrations over its respective capture surface, and changes in bound surface units (RU) were monitored. The dissociation rate is independent of the concentration of analyte used in the experiment, and the dissociation rate constant (kd) was determined from the change in antibody-bound analyte RU over time. The Biacore kinetic data were obtained using a double referencing procedure. The double referencing was conducted by first subtracting any interaction of the analyte over the reference surface (i.e., the anti-Fc coupled surface alone or the NeutrAvidin surface alone), thereby correcting for nonspecific binding to capture surface and for refractive index changes. Control buffer injections (no analyte) over the antibody- or peptide-captured surfaces were also performed to allow subtraction of RU signal changes resulting from the natural dissociation of captured binding partner from the sensor surface. The kinetic parameters were obtained by globally fitting the data for all concentrations tested for a given peptide or antibody to a 1:1 binding model using Biacore T100 Evaluation Software version 2.0.2. The KD was calculated as the dissociation rate constant divided by the association rate constant (KD=kd/kₐ). The dissociative half-life (t_{1/2}) was calculated from the dissociation rate constant (t_{1/2}=In2/kd).

[3] = target: T3, N-Term Biotin Nav1.7 (3-1) peptide, mulatta (mulatta (monkey), not fully specified; N-terminal biotin attached via a G4S linker); test: SPR, captured antibody, peptide analyte
T3 construct: Synthetic peptide; also called Mulatta Nav1.7 3-1 N-term biotin; monkey
T3 peptide: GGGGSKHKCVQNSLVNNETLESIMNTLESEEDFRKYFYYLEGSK
Protocol: as §1

[4] = target: T4, N-Term Biotin Nav1.7 (3-1) peptide, mouse (mouse, not fully specified; N-terminal biotin attached via a G4S linker); test: SPR, captured antibody, peptide analyte
T4 construct: Synthetic peptide; also called Mouse Nav1.7 3-1 N-term biotin
T4 peptide: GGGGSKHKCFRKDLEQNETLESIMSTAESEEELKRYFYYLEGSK
Protocol: as §1

[5] = target: T5, Native Nav1.7 (3-1) peptide, rat (rat); test: SPR, captured antibody, peptide analyte
T5 construct: Synthetic peptide; also called Rat Nav1.7 3-1 native
T5 peptide: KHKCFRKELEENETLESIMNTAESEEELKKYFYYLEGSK
Protocol: as §1

[6] = target: T6, C-term Biotin Nav1.7 (3-1) peptide, human (human, not fully specified; C-terminal biotin attached via a G4S linker); test: SPR, captured biotin-peptide, antibody analyte
T6 construct: Synthetic peptide; also called Human Nav1.7 3-1 C-term biotin
T6 peptide: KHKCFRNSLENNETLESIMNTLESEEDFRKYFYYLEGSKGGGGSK
Protocol: as §1

[7] = target: T3, N-Term Biotin Nav1.7 (3-1) peptide, …; test: ELISA on coated peptide, antibody 1 ug/ml, OD450 grade
Protocol: (§2) Anti-Naᵥ 1.7 antibodies were tested for their ability to bind to the Naᵥ 1.7 peptides. The various peptides were coated overnight onto 96-well Nunc Immunosorp plates at a concentration of 4 μg/mL in PBS, followed by blocking for 1 hour in a suitable blocking agent. For biotinylated peptides, avidin was first coated on Nunc Immunosorp plates at 2 μg/mL in PBS overnight, followed by blocking as described, and the plate was then coated with biotinylated peptides at a concentration of 0.4 μg/mL and incubated for 1 hour at room temperature. Purified anti-Naᵥ 1.7 antibodies were diluted to a final concentration of 0.1 μg/mL and 1.0 μg/mL and added to the wells of the coated microtiter plates followed by incubation for 1 hour at room temperature. Bound antibodies were detected with horseradish peroxidase (HRP) conjugated anti-mouse or anti-human IgG (Jackson Immuno Research Lab, West Grove, Pa.) depending on the antibody species and developed by colorimetric response using tetramethylbenzidine (TMB) substrate (BD Biosciences). Absorbance was read at OD₄₅₀ on a plate reader for 0.1 second.
(§3) Values in Table 11 represent absolute binding ranges (at OD450) to plate-coated peptides for antibodies added at 1 μg/ml as follows: OD450<0.2: −; 0.2<OD450<1: +; 1<OD450<2: ++; 2<OD450<4: +++; NT: Not Tested.

[8] = target: T4, N-Term Biotin Nav1.7 (3-1) peptide, …; test: as above
Protocol: as §2, §3

[9] = target: T5, Native Nav1.7 (3-1) peptide, rat; test: as above
Protocol: as §2, §3

[10] = target: T7, N-Term Biotin-Nav1.7 (3-1) peptide, human (human, not fully specified; N-terminal biotin attached via a G4S linker); test: as above
T7 construct: ELISA peptide
T7 peptide: T3 peptide with V10F, Q11R, V15E
Protocol: as §2, §3

[11] = target: T1, full-length human Nav1.7 fused at its …; test: flow cytometry; % stained hNav1.7-GFP-HEK293 minus parental HEK293
Protocol: The binding of anti-Naᵥ 1.7 human antibodies to full-length Naᵥ 1.7 expressed in HEK293 cells was determined by flow cytometry (FACS). HEK293 cells were stably-transfected with full-length human Nav1.7 fused at its N-terminus to the green fluorescent protein (GFP) to generate cell line hNaᵥ 1.7-GFP-HEK293. Antibody binding to the transfected cells overexpressing Naᵥ 1.7 was compared to binding to the parental HEK293 cell line. To perform the binding experiments, adherent cells were collected using 1 mM EDTA in PBS, washed and re-suspended in cold PBS containing 5% FBS. For each binding experiment, the anti-Naᵥ 1.7 antibody (at concentrations ranging from 1 nM to 13 nM), was added to 250,000 cells in 500 μL of PBS with 5% FBS. After incubation for 20 minutes on ice, the secondary antibody, recognizing either human-Fc and conjugated to cyanine 5 (Cy5) or recognizing mouse-Fc and conjugated to allophyocyanin (APC), was then added to the cell mixture at a final secondary antibody concentration of 1.7 nM. After incubating for 20 minutes on ice, the cells were resuspended in PBS+5% FBS and then sorted and analyzed on a flow cytometer to determine relative binding by the candidate antibodies. For FACS analysis, gating was applied to examine only healthy live cells in the antibody binding experiments, and percentage stained was recorded. Staining of secondary antibodies alone to Naᵥ 1.7-GFP-HEK293 cells gave low background signals (1-2%). Specific binding was measured as the percent binding to Naᵥ 1.7-GFP-HEK293 cells minus percent binding to parental HEK293 cells.

[12] = target: T1, full-length human Nav1.7 fused at its …; test: flow cytometry on Nav1.7-GFP-HEK293, antibody 3.3 nM
Protocol: (§4) The specificity of binding of anti-Naᵥ 1.7 human antibodies to full-length Naᵥ 1.7 expressed in HEK293 cells was determined by peptide competition experiments using flow cytometry.
(§5) HEK293 cells stably-transfected with full-length Naᵥ 1.7 fused at its N-terminus to GFP (Naᵥ 1.7-GFP-HEK293) were used for this study. Antibody binding to the transfected cells overexpressing Naᵥ 1.7 was compared to binding in the presence of excess peptide and to binding to the parental HEK293 cell line. To perform the binding experiments, adherent cells were collected using 1 mM EDTA in PBS, washed and re-suspended in cold PBS containing 5% FBS. For each binding experiment the anti-Naᵥ 1.7 antibody at a final concentration of 3.3 nM (in PBS/5% FBS) was added to cells either directly or after incubating for 10 min on ice with a 1000-fold molar excess (3.3 uM final concentration in PBS/5% FBS) of synthetic peptide with sequence corresponding to the loop specificity of the antibody. The antibodies designated as H4H391P, H4H443B, H4H448B, and H1M797N were preincubated as described above with a synthetic peptide corresponding to EC loop 3-1 (amino acid residues 269-338 of SEQ ID NO: 670), whereas the antibodies designated as H4H468P and H1 M852N were preincubated with a synthetic peptide corresponding to EC loop 3-3 (amino acid residues 1333-1382 of SEQ ID NO: 670). The antibody or antibody-peptide mixture was then allowed to incubate with cells for 20 min on ice, followed by addition of 500 uL of cold PBS/5% FBS. Cells were collected by centrifugation, resuspended in 500 uL of cold PBS/5% FBS, and then secondary antibody matched to the antibody isotype (either anti-human-Fc conjugated to Cyanine 5 or anti-mouse-Fc conjugated to allophyococyanin) was added. Binding was detected on the flow cytometry instrument and analyzed as percent binding using the instrument software. For FACS analysis appropriate gating was applied so that only healthy, live cells were counted. Background staining of secondary antibodies alone to Naᵥ 1.7-GFP-HEK293 cells was tested and recorded for all samples, and results ranged between 1-2% binding.

[13] = target: T1, full-length human Nav1.7 fused at its …; test: flow cytometry on Nav1.7-GFP-HEK293, antibody 3.3 nM preincubated with 3.3 uM EC 3-1 peptide as competitor
Protocol: as §4, §5

[14] = target: T4, N-Term Biotin Nav1.7 (3-1) peptide, …; test: ELISA on coated peptide
Protocol: as §2, §3

B1: H1H1019B (antibody, V domains shown)
VH: EVQLVESGPGLVKPSETLSLKCTVSGGSIRSSGYYWGWIRQPPGKGLEWIGSIHHSGSTYYNPSLKSRVTISVDTSKSQFSLRLTSVTAADTAVYYCGRHGRDYYYGMDVWGQGTTVTVSS
VL: AIQLTQSPSSLSASVGDRVTITCRASQDINNWLVWYQQKPGKAPKLLIYAASSLQSGVPSRFSGSGSGTDFTLTISSLQPEDFATYYCQQANSFPLTFGGGTKVDIKR
[1]
  Current blocking (Average % inhibition), IonWorks Quattro, 223 nM antibody: 24%
[2]
  Kd: 113 nM
  t1/2: 0.44 min
[3]
  Kd: 12.6 nM
  t1/2: 2.8 min
[4]
  Kd: 351 nM
  t1/2: 0.083 min
[5]
  Kd: 101 nM
  t1/2: 0.11 min
[6]
  Kd: 0.231 nM
  t1/2: 29.8 min
[7]
  OD450: 2 to 4 od
[8]
  OD450: 2 to 4 od
[9]
  OD450: 2 to 4 od
[10]
  OD450: 2 to 4 od
[11]
  % Binding Nav1.7: 28.1%

B2: H4H391P (antibody, V domains shown)
VH: QVQLVESGGGVVQPGRSLRLSCAASGFTFSSYGMHWVRQAPGKGLEWVAVISYEGSNKHYADSVKGRFTISRDNSKNTLYLQMNSLRAEDTAVFYCAQSRGYSYGLGYWGQGTLVTVSS
VL: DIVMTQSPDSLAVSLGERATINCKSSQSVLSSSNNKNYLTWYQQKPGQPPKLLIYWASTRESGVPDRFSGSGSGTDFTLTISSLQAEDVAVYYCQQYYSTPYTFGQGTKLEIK
[2]
  Kd: 13.6 nM
  t1/2: 8.1 min
[3]
  Kd: 2.18 nM
  t1/2: 36.1 min
[4]
  binding result: no binding
[5]
  binding result: no binding
[6]
  Kd: 0.802 nM
  t1/2: 64.6 min
[12]
  % Binding Nav1.7 (Stable Line): 7.8%
[11]
  % Binding Nav1.7: 14.3%
[13]
  % Binding Nav1.7 + 1000x Peptide (Competition Binding): 2.6%

B3: H4H408B (antibody, V domains shown)
VH: B2 VH with E54Q, G55E, A61V, F94Y
VL: DIQMTQSPSSLSASVGDRVTITCRASQGIRNDLGWYQQKPGKAPKRLIYAASSLQSGVPSRFSGSGSGTEFTLTISSLQPEDFATYYCQQHNSYPLTFGQGTKVEIKR
[14]
  OD450: < 0.2 od
[4]
  binding result: no binding

B4: H1M994N (antibody, V domains shown)
VH: QVQLVESGGGVVQPGRSLRLSCAASGFTFSSYGMHWVRQAPGKGLEWVAVISYDGNNKHFADSVKGRFTISRDNSKNTLNLQMNSLRAEDRAVYYCARGASGFVLDIWGQGTMVTVSS
VL: DIVMTQTPLSSPVTLGQPASISCRSSQSLVRSDGNTYLSWLQQRPGQPPRLLIYKISNRFSGVPDRFSGSGAGTDFTLKISRVEAEDVGIYFCMQTTQFPFTFGPGTKVDIK
notes: Hybridoma-derived
[12]
  % Binding Nav1.7 (Stable Line): 93%
[11]
  % Binding Nav1.7: 36%
[13]
  % Binding Nav1.7 + 1000x Peptide (Competition Binding): 33.4%

B5: H1M826N (antibody, V domains shown)
VH: QVQLVESGGGVVQPERSLRLSCAASGFTFSSYGMHWVRQAPGEGLEWVAVISYDGSNTKYADSVRGRFTISRDNSKNMLYLQMNSLRAEDTAVFYCARGYSGYAFDYWGQGILVTVSS
VL: B4 VL with Q27H, S70T, S81N, I90F, F92Y, T96A
notes: Hybridoma-derived
[12]
  % Binding Nav1.7 (Stable Line): 95.6%
[11]
  % Binding Nav1.7: 61%
[13]
  % Binding Nav1.7 + 1000x Peptide (Competition Binding): 17.7%
